Article PMC4700666, “The structure of a prophenoloxidase (PPO) from Anopheles gambiae provides new insights into the mechanism of PPO activation” (BMC Biology, 2016)

Target: the molecule itself
Experiment: SEC; size exclusion chromatography of purified AgPPO8 against standard proteins; eluted at a similar retention volume as bovine γ-globulin

B1: Anopheles gambiae prophenoloxidase 8 (AgPPO8) (enzyme, UniProt Q8MZM3 1-700, looked up)
chain: MATLTQKFHGLLQHPLEPLFLPKNDGTLFYDLPERFLTSRYSPIGQNLANRFGPNSPASSQVSNDTGVPPTVVTIKDLDELPDLTFATWIKRRDSFSLFNPEHRKAAGKLTKLFLDQPNADRLVDVAAYARDRLNAPLFQYALSVALLHRPDTKSVSVPSLLHLFPDQFIDPAAQVRMMEEGSIVLDENRMPIPIPMNYTATDAEPEQRMAFFREDIGVNLHHWHWHLVYPASGPPDVVRKDRRGELFYYMHQQLLARYQIDRYAQGLGRIEPLANLREPVREAYYPKLLRTSNNRTFCPRYPGMTISDVARSADRLEVRIADIESWLPRVLEAIDAGFAVSDDGVRVPLDETRGIDVLGNILERSAISINRNLYGDVHNMGHVLLAFIHDPRGTYLESSGVMGGVATAMRDPIFYRWHKFIDNIFLRNKARLAPYTMAELSNSNVTLEALETQLDRAGGAVNSFVTFWQRSQVDLRAGIDFSAAGSAFVSFTHLQCAPFVYRLRINSTARSNRQDTVRIFLLPRQNEQGRPLSFEDRRLLAIELDSFRVNLRPGMNNIVRQSSNSSVTIPFERTFGNVEQANAGNAQSRFCGCGWPAHMLLPKGNANGVEFDLFAMVSRFEDDNANVNYDENAGCDDSYAFCGLRDRVYPSRRAMGFPFDRRASNGVRSVADFVAPYKNMRLATVTLRFMNTIIDRPTN
notes: Prophenoloxidase 8 (PPO8) of Anopheles gambiae, zymogen; cDNA amplified from a cDNA pool of second instar larvae; each subunit in the crystal comprises 700 residues (numbered 1-700; pro-region 17-81, domain I 1-16 and 82-196, domain II 197-435, domain III 436-697); Expressed as a SUMO fusion with an N-terminal 6xHis tag; also called A. gambiae PPO8; source: E. coli BL21 gold (DE3), purified …
With B1 as the protein, how does the “stoichiometry N” value read?
Its value is 2.
